± gives the uncertainty stated by the source.
Assay: protein stability index of a GFP-peptide fusion (yeast GPS) (PSI 1-4); higher = more stable; sorted into four equal gates, so the index is relative within each strain
Outline: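 Yeast carrying a pooled library were grown to mid-log phase in leucine-free medium. Each library plasmid expresses Cherry and has a tiled 17-residue yeast protein peptide fused downstream of GFP. Cells were sorted into four equal gates by GFP/Cherry ratio, and plasmids from each gate were PCR-amplified, Illumina-sequenced and assigned to strains by barcode. Summing, across gates, the read frequency times the gate number gave each peptide's protein stability index.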

Sequence	protein stability index (doa10∆)	protein stability index (pdr5∆)	protein stability index (san1∆)	protein stability index (ubr1∆)
ILLYGPPGTGKTLCARA [RPT1]	1.26 ± 0.1	1.23 ± 0.18	1.36 ± 0.19	1.28 ± 0.12
QKVQGESHIDSRNNTLN [SIR4]	3.02 ± 0.057	3.1 ± 0.05	3.08 ± 0.057	3.01 ± 0.043
QKSPKIRDPLTQTGLLQ [RPC82]	1.81 ± 0.069	1.74 ± 0.041	2.02 ± 0.12	1.91 ± 0.046
KYRKRQLVTREAQIKDW [FAS2]	2.81 ± 0.27	2.86 ± 0.15	2.93 ± 0.24	3.22 ± 0.11
QPTIRKDGLKLVGSWKK [RPO21]	3.52 ± 0.19		3.3 ± 0.14	
DHINWEHIKQDYVASLN [NSL1]	3.12 ± 0.069	3.23 ± 0.069	2.72 ± 0.058	2.9 ± 0.056
PQTMEHYKQQIAVLIEL [YCS4]	3.01 ± 0.083	3.05 ± 0.12	2.92 ± 0.11	2.52 ± 0.066
HVKNFGFANSLTFILGQ [YML031W/NDC1]	1.56 ± 0.12	1.74 ± 0.076	1.42 ± 0.13	2.27 ± 0.059
EAVELVIGLDSEHDKKR [YML103C/NUP188]	2.74 ± 0.2	3.55 ± 0.15	3.16 ± 0.18	3.37 ± 0.047
DLETLTMHTKTYAAEIA [RPL32]	2.99 ± 0.061	2.74 ± 0.054	2.42 ± 0.053	2.63 ± 0.059
WRVREASTSALLQLIQS [ECM29]	1.16 ± 0.13	1.41 ± 0.12	1.04 ± 0.22	
ELPLLSPERFATLGIDP [RPT1]	2.41 ± 0.13	2.75 ± 0.18	3.27 ± 0.16	2.52 ± 0.19
KPPISDSVFSFGPKKEN [YLR335W/NUP2]	2.82 ± 0.065	2.81 ± 0.057	2.75 ± 0.046	2.94 ± 0.039
NDLIVNYEDLATTQAAS [BRN1]	2.98 ± 0.07	3.09 ± 0.087	3.34 ± 0.046	3.25 ± 0.061
TDLKKIIKANQLILSDV [RET1]	2.57 ± 0.055	2.34 ± 0.053	2.48 ± 0.053	2.39 ± 0.05
LTDPMTVMFFYHNKHMM [DIB1]	2.19 ± 0.075	2.04 ± 0.061	2.33 ± 0.094	1.76 ± 0.041
LDPINLPLDSQDDEYVK [PRP8]	2.83 ± 0.075	3.01 ± 0.066	3.14 ± 0.093	3.05 ± 0.045
KTLVYLEKCEAEFKKRK [YCS4]	3.42 ± 0.28	3.69 ± 0.17		
VDPARRQILFKYPMYMQ [MED6]	1.54 ± 0.069	1.78 ± 0.076	1.95 ± 0.17	1.47 ± 0.051
EYADNDEDKFKKLKPIV [PRP28]	2.82 ± 0.072	2.65 ± 0.092	3.09 ± 0.09	2.64 ± 0.041
GNPTNISSPIVANSPNK [YDL088C/ASM4]	1.3 ± 0.13	2.06 ± 0.14		1.82 ± 0.1
KGGKGLGKGGAKRHRKI [HHF1]	3.7 ± 0.22	3.59 ± 0.19	3.65 ± 0.067	3.59 ± 0.053
NNDDDDNSVEQGRRLGE [MCD1]		3.46 ± 0.21		3.37 ± 0.12
YVRAKFLDYTTDNVSMY [PRP8]	2.82 ± 0.059	2.73 ± 0.064	2.54 ± 0.063	2.82 ± 0.061
RLKVFEGIPPPYDKKKR [RPL16A]	2.99 ± 0.087	2.9 ± 0.094	3.05 ± 0.065	2.97 ± 0.08
VESVCQKLDILVAKLKK [SMC4]	1.9 ± 0.093	2.19 ± 0.051	2.24 ± 0.087	2.12 ± 0.048

Sequence	protein stability index (doa10∆)	protein stability index (pdr5∆)	protein stability index (san1∆)	protein stability index (ubr1∆)
TVMYQRRSKMNPLWNAI [PRE4]	2.83 ± 0.084	3.18 ± 0.11	2.66 ± 0.089	3.09 ± 0.072
LENATWTMRIEGRLLDN [SNF12]	2.64 ± 0.099	2.89 ± 0.12	2.65 ± 0.1	2.92 ± 0.066
KLILHAIHIFESYYNWK [YML103C/NUP188]	1.57 ± 0.082	1.45 ± 0.07	1.58 ± 0.081	1.82 ± 0.056
YGHVFLGITGLATDVTT [PUP3]	1.93 ± 0.13	2.24 ± 0.098	2.25 ± 0.15	2.29 ± 0.1
SVLLHHKTMSIVGVLQD [RPT2]	1.34 ± 0.074	1.51 ± 0.053	1.37 ± 0.096	1.57 ± 0.042
IPDFRSSEGFYSKIKHL [SIR2]	2.33 ± 0.13	2.21 ± 0.075	2.17 ± 0.15	2.45 ± 0.079
QELKLTCVAKKGIAKEH [RPB3]	3.09 ± 0.23	3.18 ± 0.13	2.92 ± 0.1	2.96 ± 0.095
RFFWKRSTNKKSKILRK [UBP6]	1.19 ± 0.19			1.28 ± 0.16
NQNQRNVNETMSRSLAN [SMC3]	3.11 ± 0.12	2.65 ± 0.12	3.15 ± 0.059	2.86 ± 0.077
GDAAPAEEAAAEEEEES [RPP0]		3.67 ± 0.16	3.29 ± 0.13	3.44 ± 0.12
PKILIREHERVILKQIL [SWP82]	1.84 ± 0.081	2.18 ± 0.092	3.18 ± 0.24	3.15 ± 0.12
DATANATANATANATAN [DSN1]	3.25 ± 0.086	3.04 ± 0.071	3.37 ± 0.053	3.12 ± 0.043
HYGLAVDIYTHFTSPIR [DIS3]	1.56 ± 0.042	1.86 ± 0.052	1.61 ± 0.064	1.84 ± 0.039
PVVQVGIFIKILNDSLI [IRR1]	1.5 ± 0.052	1.49 ± 0.046	1.86 ± 0.067	1.97 ± 0.038
ATNTFGSNQQSSTGGGL [YGR119C/NUP57]	2.89 ± 0.12	3.23 ± 0.076	3.15 ± 0.13	2.9 ± 0.075
GIPPPYDKKKRVVVPQA [RPL16B]	1.83 ± 0.046	2.2 ± 0.059	1.99 ± 0.12	2.13 ± 0.058
LQRTILNRIINHMLIDS [RGR1]	2.76 ± 0.057	2.4 ± 0.081	2.21 ± 0.093	1.72 ± 0.066
LKEQELVLYDAENDVIE [BRR2]	3.24 ± 0.16	2.9 ± 0.16	2.99 ± 0.11	2.74 ± 0.11
ANVFRLENQKDLVIVDE [MTW1]	3.49 ± 0.12	3.36 ± 0.15	3.4 ± 0.091	3.43 ± 0.074
QNDELKFQGVLESEAQK [RPC34]	3.41 ± 0.11	3.21 ± 0.11	3.23 ± 0.061	2.93 ± 0.075
LIENCKQVLDVDPVYKD [FAS2]	3.14 ± 0.17	3.21 ± 0.12	3.33 ± 0.076	3.37 ± 0.068
ASYAKIEIKISDPLTVF [SNU114]	1.21 ± 0.15	2.66 ± 0.25		1.45 ± 0.089
TLAERQQLAYDLSISAL [RPN9]	2.39 ± 0.078	2.47 ± 0.13	2.77 ± 0.24	2.95 ± 0.093
LEQKIHEVEEILNELQP [SMC1]	3.04 ± 0.15	2.73 ± 0.22	2.99 ± 0.17	3.14 ± 0.2
SSAAILGLGIAFAGSKN [RPN1]	1.35 ± 0.081	1.94 ± 0.097	2.03 ± 0.29	1.34 ± 0.092

Reference: the supplement of paper PMC9732359
